In patent US20160108128A1 (CANCER RESEARCH TECHNOLOGY, published 2016):
Numbering of substitutions follows the chain as printed.

B1: J1-183D chimeric (antibody, human IgG1, V domains shown)
VH: QVQLQQPGTELVRPGVSVKISCKVSGYAFTDYAIHWIMQSHAKSLEWIGIINTYYGDSKYNQKFKDKATMTVDKSSNTAYMELARLTSEDSAIYYCARGYDGFAYWGQGTLVTVSS
VL: DIQLTQSPASLSASVGETVTFTCRTSENIYSYLTWYQQKQGKSPQLLVYNAKILAAGVPSRFSGYGSGTQFSLKINSLQPEDFGTYYCQHHYDIPWTFGGGTKLEIK
notes: chimeric antibody with unaltered CDRs; vectors encode human IgG1
B2: J1-65D chimeric (antibody, human IgG1, V domains shown)
VH: QVQLQQPGAELVRPGASVKLSCKALGYTFTDYEMHWVKETPVHGLEWIGAIQPGGGGTAYNQKFKGKATLTADKSSSTAYMELSSLTSEDSAVYYCTRRGYDDYPFAYWGQGTLVTVSS
VL: DIQLTQSPASLSASVGETVTITCRASGNIHNYLAWYQQKQGKSPQLLVYNAKTLADDIPSRFSGSGSGTQYSLKINSLQPEDFGSYYCQHFWSAPWTFGGGTKLEIK
notes: as for B1
B3: J1-65D variant 14 (antibody, human IgG1, V domains shown)
VH: QVQLVQSGAELKKPGSSVKVSCKASGYTFTDYEMHWVRQAPGQGLEWMGAIQPGGGGTAYAQKFKGRVTLTADKSTSTAYMELSSLRSEDTAVYYCTRRGYDDYPFAYWGQGTLVTVSS
VL: DIQMTQSPSSLSASVGDRVTITCRASQGIHNYLAWYQQKPGKAPKLLIYNAKTLADAVPSRFSGSGSGTDYTLTISSLQPEDFATYYCQQFWSAPWTFGQGTKLEIK
notes: human IgG1; also called J1-65DV14; V14
B4: J1-65D variant 6 (antibody, human IgG1, V domains shown)
VH: B3 VH
VL: DIQMTQSPSSLSASVGDRVTITCRASGNIHNYLAWYQQKPGKAPKLLIYNAKTLADAVPSRFSGSGSGTDYTLTISSLQPEDFATYYCQHFWSAPWTFGGGTKLEIKR
notes: human IgG1; also called J1-65DV6; V6
B5: J1-65D variant 2 (antibody, human IgG1, V domains shown)
VH: B3 VH
VL: B4 VL with A57D
notes: human IgG1; also called J1-65DV2; V2
B6: J1-65D variant 1 (antibody, human IgG1, V domains shown)
VH: B3 VH with A61N
VL: B4 VL with A57D
notes: human IgG1; also called J1-65DV1; V1
B7: J1-65D variant 13 (antibody, human IgG1, V domains shown)
VH: B3 VH with A61N
VL: B3 VL
notes: human IgG1; also called J1-65DV13; V13
B8: J1-65D variant 15 (antibody, human IgG1, V domains shown)
VH: B3 VH with L11V, K65Q
VL: B3 VL
notes: human IgG1; also called J1-65DV15; V15
B9: J1-65D variant 16 (antibody, human IgG1, V domains shown)
VH: B3 VH with L11V, K65Q, L70I
VL: B3 VL
notes: human IgG1; also called J1-65DV16; V16
B10: J1-183D variant 10 (antibody, human IgG1, V domains shown)
VH: QVQLVQSGAELKKPGASVKVSCKVSGYAFTDYAIHWIRQAPGQGLEWMGIINTYYGDSKYAQKFQGRVTMTVDTSTSTAYMELSSLRSEDTAVYYCARGYDGFAYWGQGTLVTVSS
VL: DIQMTQSPSSLSASVGDRVTITCRTSENIYSYLTWYQQKPGKAPKLLIYNAKILDSGVPSRFSGSGSGTDFTLTISSLQPEDFATYYCQHHYDIPWTFGGGTKLEIKR
notes: human IgG1; also called J1-183DV10; V10
B11: J1-183D variant 16 (antibody, human IgG1, V domains shown)
VH: B10 VH with L11V, V24A, A28T, I37V
VL: B10 VL with N50H
notes: human IgG1; also called J1-183DV16; V16
B12: J1-183D variant 8 (antibody, human IgG1, V domains shown)
VH: B10 VH with L11V, V24A, A28T, I37V
VL: B10 VL with I53T, D55A
notes: human IgG1; also called J1-183DV8; V8
B13: J1-183D variant 12 (antibody, human IgG1, V domains shown)
VH: B10 VH with L11V, V24A, A28T, I37V
VL: B10 VL
notes: human IgG1; also called J1-183DV12; V12
B14: J1-183D variant 9 (antibody, human IgG1, V domains shown)
VH: B10 VH with A61N, Q65K, G66D, T74K
VL: B10 VL
notes: human IgG1; also called J1-183DV9; V9
B15: J1-183D variant 11 (antibody, human IgG1, V domains shown)
VH: B10 VH with I37V
VL: B10 VL
notes: human IgG1; also called J1-183DV11; V11
B16: J1-183D variant 13 (antibody, human IgG1, V domains shown)
VH: B10 VH with A61N, Q65K, G66D, T74K
VL: B10 VL with N50H
notes: human IgG1; also called J1-183DV13; V13
B17: J1-183D variant 1 (antibody, human IgG1, V domains shown)
VH: B10 VH with A61N, Q65K, G66D, T74K
VL: B10 VL with I48V, D55A, S56A
notes: human IgG1; also called J1-183DV1; V1
B18: J1-183D variant 6 (antibody, human IgG1, V domains shown)
VH: B10 VH
VL: B10 VL with I53T, D55A
notes: human IgG1; also called J1-183DV6; V6
B19: J1-183D variant 7 (antibody, human IgG1, V domains shown)
VH: B10 VH with I37V
VL: B10 VL with I53T, D55A
notes: human IgG1; also called J1-183DV7; V7
B20: J1-183D variant 14 (antibody, human IgG1, V domains shown)
VH: B10 VH
VL: B10 VL with N50H
notes: human IgG1; also called J1-183DV14; V14
B21: J1-183D variant 2 (antibody, human IgG1, V domains shown)
VH: B10 VH
VL: B10 VL with I48V, D55A, S56A
notes: human IgG1; also called J1-183DV2; V2
B22: J1-183D variant 5 (antibody, human IgG1, V domains shown)
VH: B10 VH with A61N, Q65K, G66D, T74K
VL: B10 VL with I53T, D55A
notes: human IgG1; also called J1-183DV5; V5
B23: J1-183D variant 4 (antibody, human IgG1, V domains shown)
VH: B10 VH with L11V, V24A, A28T, I37V
VL: B10 VL with I48V, D55A, S56A
notes: human IgG1; also called J1-183DV4; V4
B24: J1-183D variant 3 (antibody, human IgG1, V domains shown)
VH: B10 VH with I37V
VL: B10 VL with I48V, D55A, S56A
notes: human IgG1; also called J1-183DV3; V3
B25: J1-183D variant 15 (antibody, human IgG1, V domains shown)
VH: B10 VH with I37V
VL: B10 VL with N50H
notes: human IgG1; also called J1-183DV15; V15

target: T1, human Jagged 2, full length, on HEK293 cells (human, UniProt Q9Y219 24-1238); assay: FACS, 293-JAG2 cells, anti-human-APC
T1 construct: whole, on cells; also called J2; hJ2
T1 sequence (Q9Y219 24-1238): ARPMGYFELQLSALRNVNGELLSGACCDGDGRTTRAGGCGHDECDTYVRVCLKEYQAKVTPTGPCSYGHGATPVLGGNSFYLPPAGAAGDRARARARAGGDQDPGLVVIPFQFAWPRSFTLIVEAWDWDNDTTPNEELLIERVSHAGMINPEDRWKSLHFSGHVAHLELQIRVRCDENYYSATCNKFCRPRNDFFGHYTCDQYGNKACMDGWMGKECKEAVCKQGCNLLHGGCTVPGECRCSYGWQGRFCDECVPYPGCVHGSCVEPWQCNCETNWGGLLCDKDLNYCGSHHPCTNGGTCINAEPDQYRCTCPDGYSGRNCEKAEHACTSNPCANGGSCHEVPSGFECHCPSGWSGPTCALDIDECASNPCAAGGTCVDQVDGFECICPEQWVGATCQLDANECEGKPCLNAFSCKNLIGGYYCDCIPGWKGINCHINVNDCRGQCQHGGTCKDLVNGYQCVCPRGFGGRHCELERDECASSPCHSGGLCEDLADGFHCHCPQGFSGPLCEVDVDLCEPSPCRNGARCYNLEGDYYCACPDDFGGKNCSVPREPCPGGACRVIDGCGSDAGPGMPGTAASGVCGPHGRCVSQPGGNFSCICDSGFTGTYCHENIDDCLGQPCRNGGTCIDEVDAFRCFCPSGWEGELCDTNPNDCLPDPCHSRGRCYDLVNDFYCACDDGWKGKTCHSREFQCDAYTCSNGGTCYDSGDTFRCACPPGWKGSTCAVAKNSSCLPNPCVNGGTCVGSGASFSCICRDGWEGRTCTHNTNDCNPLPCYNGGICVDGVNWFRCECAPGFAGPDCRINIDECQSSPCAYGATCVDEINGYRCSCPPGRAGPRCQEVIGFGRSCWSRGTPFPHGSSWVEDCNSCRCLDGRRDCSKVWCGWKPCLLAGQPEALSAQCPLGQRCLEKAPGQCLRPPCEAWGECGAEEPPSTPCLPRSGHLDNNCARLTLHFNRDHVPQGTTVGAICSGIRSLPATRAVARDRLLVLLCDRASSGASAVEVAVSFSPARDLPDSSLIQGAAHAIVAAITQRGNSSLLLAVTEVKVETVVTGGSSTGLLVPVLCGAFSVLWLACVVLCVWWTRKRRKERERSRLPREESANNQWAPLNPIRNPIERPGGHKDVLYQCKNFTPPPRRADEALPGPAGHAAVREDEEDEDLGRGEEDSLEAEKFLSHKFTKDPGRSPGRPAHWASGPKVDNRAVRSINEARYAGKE
Protocol: FIG. 18. […] Samples were analysed by FACS and the mean fluorescence intensities (MFI) were plotted. […] With the exception of J1-65D variants 13-16, all the remaining antibodies effectively bound the human J1 protein.
(§1) HEK293 cells transfected with human J1, J2 or FLAG-EGFP-tagged DSL-EGF3 constructs, B16F10 cells transfected with human DLL4 or mouse J1, and human cancer cell lines, were stained with either purified anti-J1 antibodies at 10 μg/ml diluted in FACS wash buffer (2% FBS in PBS+0.1% sodium azide) or neat hybridoma supernatants followed by a allophycocyanin (APC)-conjugated secondary antibody at 1:200 dilution: for murine primary antibodies, used goat anti-mouse-APC (eBioscience); for humanised and chimeric antibodies used goat anti-human IgG (H+L) secondary antibody (Jackson ImmunoResearch Laboratories). After washing, samples were fixed with 1% paraformaldehyde (in PBS) and acquired with a FACSCalibur. FACS data were analysed with FlowJo software (TreeStar Inc.).

| binding result | Binder |
| --- | --- |
| no binding (tested: 10 ug/ml) | B1 |
| no binding (tested: 10 ug/ml) | B2 |
| no binding (tested: 10 ug/ml) | B3 |
| no binding (tested: 10 ug/ml) | B4 |
| no binding (tested: 10 ug/ml) | B5 |
| no binding (tested: 10 ug/ml) | B6 |
| no binding (tested: 10 ug/ml) | B7 |
| no binding (tested: 10 ug/ml) | B8 |
| no binding (tested: 10 ug/ml) | B9 |
| no binding (tested: 10 ug/ml) | B10 |
| no binding (tested: 10 ug/ml) | B11 |
| no binding (tested: 10 ug/ml) | B12 |
| no binding (tested: 10 ug/ml) | B13 |
| no binding (tested: 10 ug/ml) | B14 |
| no binding (tested: 10 ug/ml) | B15 |
| no binding (tested: 10 ug/ml) | B16 |
| no binding (tested: 10 ug/ml) | B17 |
| no binding (tested: 10 ug/ml) | B18 |
| no binding (tested: 10 ug/ml) | B19 |
| no binding (tested: 10 ug/ml) | B20 |
| no binding (tested: 10 ug/ml) | B21 |
| no binding (tested: 10 ug/ml) | B22 |
| no binding (tested: 10 ug/ml) | B23 |
| no binding (tested: 10 ug/ml) | B24 |
| no binding (tested: 10 ug/ml) | B25 |

target: T2, murine Jagged 1, full length, on B16F10 cells (mouse, UniProt Q9QXX0 34-1218); assay: FACS, B16F10-mJAG1 cells, anti-human-APC
T2 construct: whole, on cells; GFP co-expressed; also called mJ1; B16F10-mJAG1
T2 sequence (Q9QXX0 34-1218, one chain of several): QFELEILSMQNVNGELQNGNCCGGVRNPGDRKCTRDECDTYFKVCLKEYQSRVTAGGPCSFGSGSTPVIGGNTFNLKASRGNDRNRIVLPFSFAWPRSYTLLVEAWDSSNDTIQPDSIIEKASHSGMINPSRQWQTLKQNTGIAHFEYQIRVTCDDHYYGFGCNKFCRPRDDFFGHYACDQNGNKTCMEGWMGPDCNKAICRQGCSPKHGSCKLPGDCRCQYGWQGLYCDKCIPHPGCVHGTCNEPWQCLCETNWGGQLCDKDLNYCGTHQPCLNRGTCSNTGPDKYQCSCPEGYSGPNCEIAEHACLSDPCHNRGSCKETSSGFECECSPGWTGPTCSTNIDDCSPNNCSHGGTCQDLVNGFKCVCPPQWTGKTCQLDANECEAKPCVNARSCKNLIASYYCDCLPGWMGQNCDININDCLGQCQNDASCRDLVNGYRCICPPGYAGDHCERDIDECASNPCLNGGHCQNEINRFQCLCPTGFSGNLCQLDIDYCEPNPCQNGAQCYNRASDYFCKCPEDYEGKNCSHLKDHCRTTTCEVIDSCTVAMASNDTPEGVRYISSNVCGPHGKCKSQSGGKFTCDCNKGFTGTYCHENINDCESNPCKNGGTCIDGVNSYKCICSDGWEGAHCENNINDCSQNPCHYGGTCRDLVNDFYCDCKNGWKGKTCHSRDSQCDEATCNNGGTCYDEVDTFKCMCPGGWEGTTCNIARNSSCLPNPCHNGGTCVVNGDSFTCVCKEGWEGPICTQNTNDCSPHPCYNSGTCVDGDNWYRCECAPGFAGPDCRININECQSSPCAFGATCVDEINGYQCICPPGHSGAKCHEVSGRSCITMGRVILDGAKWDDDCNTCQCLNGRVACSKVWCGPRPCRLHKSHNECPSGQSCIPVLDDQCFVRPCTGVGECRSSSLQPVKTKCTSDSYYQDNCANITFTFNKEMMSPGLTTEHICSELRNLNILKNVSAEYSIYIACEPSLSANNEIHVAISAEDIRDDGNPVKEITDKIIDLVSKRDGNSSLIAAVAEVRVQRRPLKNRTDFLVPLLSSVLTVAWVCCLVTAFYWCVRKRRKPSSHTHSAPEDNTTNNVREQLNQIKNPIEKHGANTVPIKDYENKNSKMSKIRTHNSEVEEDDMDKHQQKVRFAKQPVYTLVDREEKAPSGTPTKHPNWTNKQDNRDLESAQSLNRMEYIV
Protocol: FIG. 19. […] Samples were analysed by FACS and the mean fluorescence intensities (MFI) were plotted.
as §1

| binding result | Binder |
| --- | --- |
| no binding (tested: 10 ug/ml) | B1 |
| no binding (tested: 10 ug/ml) | B2 |
| no binding (tested: 10 ug/ml) | B3 |
| no binding (tested: 10 ug/ml) | B4 |
| no binding (tested: 10 ug/ml) | B5 |
| no binding (tested: 10 ug/ml) | B6 |
| no binding (tested: 10 ug/ml) | B7 |
| no binding (tested: 10 ug/ml) | B8 |
| no binding (tested: 10 ug/ml) | B9 |
| no binding (tested: 10 ug/ml) | B10 |
| no binding (tested: 10 ug/ml) | B11 |
| no binding (tested: 10 ug/ml) | B12 |
| no binding (tested: 10 ug/ml) | B13 |
| no binding (tested: 10 ug/ml) | B14 |
| no binding (tested: 10 ug/ml) | B15 |
| no binding (tested: 10 ug/ml) | B16 |
| no binding (tested: 10 ug/ml) | B17 |
| no binding (tested: 10 ug/ml) | B18 |
| no binding (tested: 10 ug/ml) | B19 |
| no binding (tested: 10 ug/ml) | B20 |
| no binding (tested: 10 ug/ml) | B21 |
| no binding (tested: 10 ug/ml) | B22 |
| no binding (tested: 10 ug/ml) | B23 |
| no binding (tested: 10 ug/ml) | B24 |
| no binding (tested: 10 ug/ml) | B25 |

target: T3, J1 DSL-EGF3 soluble recombinant protein (human Jagged 1 amino acids 185-335) (human, UniProt P78504 185-335); assay: affinity to the immunogen J1-DE3; method not stated
T3 construct: biotinylated in the CD46 ELISA; also called J1-DE3; DSL+EGF1-3
T3 sequence (P78504 185-335, form in doubt): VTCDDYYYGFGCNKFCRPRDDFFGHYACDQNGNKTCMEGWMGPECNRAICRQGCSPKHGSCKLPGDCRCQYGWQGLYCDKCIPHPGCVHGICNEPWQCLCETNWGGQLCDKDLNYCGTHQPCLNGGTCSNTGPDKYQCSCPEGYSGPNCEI

| Kd [nM] | Binder |
| --- | --- |
| 58.3 | B3 |
| 0.223 | B4 |
| 0.165 | B5 |
| 0.15 | B6 |
| 14.2 | B7 |
| 39.8 | B8 |
| 52.1 | B9 |
| 1.77 | B10 |
| 4.86 | B11 |
| 1.48 | B12 |
| 2.61 | B13 |
| 0.68 | B14 |
| 2.82 | B15 |
| 1.5 | B16 |
| 0.77 | B17 |
| 1.39 | B18 |
| 1.26 | B19 |
| 3.91 | B20 |
| 2.19 | B21 |
| 2.75 | B22 |
| 2.76 | B23 |
| 2.55 | B24 |
| 5.47 | B25 |
